Residue numbers refer to the chain shown, from its start.

Experiment [1] deals with T1, FGFR3 fused to β-galactosidase fragments (FGFR3-PK and FGFR3-EA) co-expressed in U2OS cells. The experiment is described as follows: cell-based or functional assay.
The target in experiment [2] is T2, wild-type human FGFR3 isoform IIIc, full length, expressed on transfected cells (human, UniProt P22607 23-806).
T2 construct: also called wild-type FGFR3; FGFR3-300.19
The experiment is described as follows: FACS, cells transfected with wild-type FGFR3.
Procedure: (§1) After three washes, the cells were incubated with a fluorescent-conjugated secondary antibody (Invitrogen).

The target of experiment [3] is T3, human FGFR3 G380R isoform IIIc, full length, expressed on transfected cells (human, UniProt P22607 23-806).
T3 construct: also called mutant FGFR3; FGFR3^G380R-300.19
The experiment is described as follows: FACS, cells transfected with mutant FGFR3 (G380R).
Procedure: as §1

In experiment [4] the target is T4, WT PRCs (mouse, UniProt Q61851). Description: cell-based or functional assay.
The target in experiment [5] is T4, WT PRCs. The experiment is described as follows: cell-based or functional assay. This is another data set of the same source.
In experiment [6] the target is T4, WT PRCs. Description: cell-based or functional assay. This is another data set of the same source.
The target in experiment [7] is T1, FGFR3 fused to β-galactosidase …. Description: cell-based or functional assay. The source holds these as a separate data set.
The target is the same in experiment [8]. The experiment is described as follows: cell-based or functional assay. This is another data set of the same source.

B1: KE58 (antibody, V domains shown)
VH: EVQLQQSGPDLVKPGASVKISCKASGYTVTDYYMNWVKQSHGKSLEWIGDINPNNGVTTYNQKFKDKATLTVDKSSSTAYMELRSLTSEDSAVYYCAREEDFDGFDYWGQGTTLTVSS
VL: DIVMTQSHKFMSTSVGDRVSITCKASQDVSTGVAWYQQKPGQSPQLLIYWASTRHTGVPDRFTGSGSGTDYILTIRSVQAEDLALYYCQQHYSTPLTFGAGTKLELK
notes: Mouse hybridoma monoclonal antibody
As for B1, the “EC50, inhibition of FGF18-induced FGFR3 dimerization (RLU, beta-galactosidase complementation in U2OS cells); fitted curve 'KE58 with FGF18'” value in experiment [1] came out at 0.423 µg/mL. Besides, the binding result in experiment [2] and in experiment [3] was “binds” in each case.

B2: KC18_Hu46 (antibody, human IgG1, kappa, V domains shown)
VH: EVQLVQSGAEVKKPGATVKLSCKASGDTFTDFEIHWVQQAPGKGLEWIGDVDPETGGTAYAEKFQGRATLTADRSTDTAYLELSSLRSEDTAVYYCTRTYDGYPYAFDYWGQGTLVTVSS
VL: DIVMTQSPDSLAVSLGERVTINCKSSQSVLYSDNQKNYLAWYQQKPGQSPKLLIYFASTRESGVPDRFSGSGSGTDFTLTISSVQAEDVAVYYCQQYYSYRTFGGGTKLEIKR
As for B2, in the experiment with WT PRCs [4], the “IC50, inhibition of FGF18-stimulated Erk phosphorylation (pErk/Erk %, HTRF), 'Hu46 on WT PRCs'” value turned out to be 0.55 µg/ml.

B3: KC18_Hu44 (antibody, human IgG1, kappa, V domains shown)
VH: B2 VH
VL: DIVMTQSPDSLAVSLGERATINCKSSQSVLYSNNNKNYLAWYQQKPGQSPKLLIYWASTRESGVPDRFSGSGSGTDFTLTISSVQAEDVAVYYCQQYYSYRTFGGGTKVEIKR
Regarding B3, the “IC50, inhibition of FGF18-stimulated Erk phosphorylation (pErk/Erk ratio %, HTRF), 'Hu44 on WT PRCs'” value in the experiment with WT PRCs [5] stood at 0.32 µg/ml.

B4: KC18_Hu18 (antibody, human IgG1, kappa, V domains shown)
VH: B2 VH with L81M
VL: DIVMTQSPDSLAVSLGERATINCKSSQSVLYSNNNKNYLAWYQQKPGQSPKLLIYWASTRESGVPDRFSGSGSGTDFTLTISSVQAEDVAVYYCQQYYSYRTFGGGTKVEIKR
Regarding B4, the “IC50, inhibition of FGF18-stimulated Erk phosphorylation (pErk/Erk %, HTRF), 'Hu18 on WT PRCs'” value with WT PRCs [6] was 0.42 µg/ml.

B5: KC18 (antibody, V domains shown)
VH: QVQLQQSGAELVRPGASVTLSCKASGDTFTDFEIHWVKQTPVHGLEWIGDIDPETGGTAYNQKFRGRAMLTADRSSSTAYMELRSLTSEDSAVYYCTRTYDGYPYAMDYWGQGTSVTVSS
VL: DIVMSQSPSSLAVSVGEKVTMSCKSSQSLLYSNNQKNYLAWYQQKPGQSPKLLIYWASTRESGVPDRFTGSGSGTDFTLTISSVKAEDLAVYYCQQYYSYRTFGGGTKLEIKR
On to B5, for which the “EC50, inhibition of FGF18-induced FGFR3 dimerization (RLU, beta-galactosidase complementation in U2OS cells); table column 'KC18 with FGF'” value in experiment [7] amounted to 0.521 µg/mL.

B6: KE63 (antibody, V domains shown)
VH: B5 VH with D27S, T30S, D50G, R65K, R67K, M69I, T99N, P104S, Y105Q, A106T
VL: NIMMTQSPSSLAVSAGEKVTMSCKSSQSVLYSSNQKNYLAWYQQKPGQSPKLLIYWASTRESGVPDRFTGSGSGTDFTLTISSVQAEDLAVYYCHQYLSSYTFGGGTKLEMK
notes: as for B1
Regarding B6, the binding result in experiment [2] and in experiment [3] was “binds” throughout.

B7: KE94 (antibody, V domains shown)
VH: QVQLQQSGAELVRPGASVTLSCKASGSTFTDFEIHWVKQTPVHGLEWIGAIDPETGGTAYNQKFKGKAILTAVKSSSTAYMGLRSLTSEDSAVYYCTRNYDGYSRTMDYWGQGTSVTVSS
VL: B6 VL with T78S, T80S, A86T, K108R
notes: as for B1
B7: the “EC50, inhibition of FGF18-induced FGFR3 dimerization (RLU, beta-galactosidase complementation in U2OS cells); fitted curve 'KE94 with FGF18'” value in experiment [8] turned out to be 0.102 µg/mL. In addition, the binding result in experiment [2] and in experiment [3] was “binds” each time.

B8: KE35 (antibody, V domains shown)
VH: EVQLQQSGPELVKPGASVKMSCKASGYTFTDYNMHWVKQSHGKSLEWIGYINPNNGGTRYNQKFKGKATLTVNKSSSTAYMELRSLTSEDSAVYYCARERDYDGAMDYWGQGTSVTVSS
VL: DIQMTQSPSSLSASLGGKVTITCKASQDINKFIAWYQHKPGKGPRLLIHYTSTLQPGIPSRFSGSGSGRDYSFSISNLEPEDIATYYCLQYDNLLWTFGGGTKLEIK
notes: as for B1
In the case of B8, the binding result in experiment [2] and in experiment [3] was “binds” each time.

B9: KE42 (antibody, V domains shown)
VH: B8 VH with E46Q, R59N, K63N, G66D, S77T, A105S, Y108F
VL: B8 VL with Y87F
notes: as for B1
As to B9, the binding result in experiment [2] and in experiment [3] was “binds” each time.
